Assay [1] deals with GST-RILP-L1 (RILP-Like 1, mouse) (mouse) (UniProt Q9JJC6). Briefly: pull-down; 20 ug GST fusion protein immobilised on glutathione agarose beads, incubated 18 h at 4 C with 500 ug RAW264.7 macrophage lysate (untreated or treated with GSK2578215A); 50 mM HEPES pH 7.4, 150 mM NaCl, 1 mM MgCl2, 1% Triton X-100, phosphatase inhibitors; immunoblot, quantified as percent of total input. (In western blotting, separated proteins are transferred to a membrane and probed.)

The target in assay [2] is GST-RILP-L2 (RILP-Like 2, mouse) (mouse) (UniProt Q99LE1). Described as above.
For assay [3], the target named is GST-RILP-L1 (RILP-Like 1, mouse) (mouse) (UniProt Q9JJC6). Kind of assay: pull-down; 20 ug GST fusion protein immobilised on glutathione agarose beads, incubated 18 h at 4 C with 500 ug RBL cell lysate (untreated, Ion/TPA-activated, or Ion/TPA with LY333531); 50 mM HEPES pH 7.4, 150 mM NaCl, 1 mM MgCl2, 1% Triton X-100, phosphatase inhibitors; immunoblot, quantified as percent of total input.

Assay [4] addresses GST-RILP-L2 (RILP-Like 2, mouse) (mouse) (UniProt Q99LE1). Described as above.

Sequence of UniProt Q9JJC6 (Q9JJC6 whole entry, the tested form may be a part): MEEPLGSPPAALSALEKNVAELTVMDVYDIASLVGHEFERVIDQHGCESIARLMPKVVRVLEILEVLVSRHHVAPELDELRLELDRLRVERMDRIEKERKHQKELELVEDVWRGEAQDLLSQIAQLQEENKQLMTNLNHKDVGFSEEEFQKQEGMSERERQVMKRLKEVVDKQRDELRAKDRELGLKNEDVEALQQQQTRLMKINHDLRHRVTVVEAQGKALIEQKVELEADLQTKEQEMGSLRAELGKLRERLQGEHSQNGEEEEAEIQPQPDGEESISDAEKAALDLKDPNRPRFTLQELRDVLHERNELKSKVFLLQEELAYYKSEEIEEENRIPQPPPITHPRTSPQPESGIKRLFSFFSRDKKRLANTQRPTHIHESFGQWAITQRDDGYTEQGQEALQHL
Sequence of UniProt Q99LE1 (Q99LE1 whole entry, the tested form may be a part): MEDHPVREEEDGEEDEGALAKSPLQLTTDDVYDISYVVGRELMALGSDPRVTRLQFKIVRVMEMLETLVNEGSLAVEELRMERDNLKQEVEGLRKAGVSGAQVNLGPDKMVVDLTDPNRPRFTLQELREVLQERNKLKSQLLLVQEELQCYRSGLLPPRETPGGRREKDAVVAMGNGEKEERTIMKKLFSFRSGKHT

For the substance “Rab12 (endogenous, RAW264.7 macrophages) (from UniProt P35283 1-291) (natural protein)”, the percent reduction of pull-down after GSK2578215A, against untreated cells in assay [1] is 50%; in assay [2], 80%.
Turning to “phosphoRab12 (endogenous, Ion/TPA-activated RBL-2H3 cells) (from UniProt P35284 1-291) (natural protein)”, the percent of total input pulled down in assay [3] amounted to 38%; in assay [4], 18%.
In assay [3], “Rab12 (endogenous, RBL-2H3 cells) (from UniProt P35284 1-291) (natural protein)” registered a percent of total input pulled down of 14% and a percent reduction of pull-down after LY333531, against Ion/TPA alone of 60%. Besides, in assay [4], the percent of total input pulled down is 4% and the percent reduction of pull-down after LY333531, against Ion/TPA alone is 90%.

The record behind these values is publication PMC12678272.
